According to US20090081724A1 (BIONOMICS, published 2009):

Target: AD-CaM (Calmodulin, encoded by the CALM2 gene, fused to the activation domain) (human, UniProt P0DP24 1-149)
Assay: yeast two-hybrid, HIS3 and LacZ reporters

B1: DB-Q2C R353G mutant (other, not shown: small tags and cut ends)
chain: KVQEQHRQKHFEKRRNPAAGLIQSAWRFYATNLSGTDLHSTWQYYERTVTVPMYSSQTQTYGASRLIPPLNQLELLRNLKSKSGLAFRKDPPPEPSPSQKVSLKDRVFSSPRGVAAKGKGSPQAQTVRRSPSADQSLEDSPSKVPKSWSFGDRSRARQAFRIKGAASRQNSEEASLPGEDIVDDKSCPCEFVTEDLTPGLKVSIRAVCVMRFLVSKRKFKESLRPYDVMDVIEQYSAGHLDMLSRIKSLQSRVDQIVGRGPAITDKDRTKGPAEAELPEDPSMMGRLGKVEKQVLSMEKKLDFLVNIYMQRMGIPPTETEAYFGAKEPEPAPPYHSPEDSREHVDRHGCIVKIVRSSSSTGQKNFSAPPAAPPVQCPPSTSWQPQSHPRQGHGTSPVGDHGSLVRIPPPPAHERSLSAYGGGNRASMEFLRQEDTPGCRPPEGTLRDSDTSISIPSVDHEELERSFSGFSISQSKENLDALNSCYAAVAPCAKVRPYIAEGESDTDSDLCTPCGPPPRSATGEGPFGDVGWAGPRK
notes: Only the intracellular C-terminal region stood in the bait, made with the same primers as the wt construct; also called R353G KCNQ2 mutant
**Q.** Does B1 bind?
**A.** Result: no binding
